Laboratory results reported in US20260240994A1 (MAYO FOUNDATION FOR MEDICAL EDUCATION AND RESEARCH, published 2026).

Experiments:
[1] = molecular target: T1, Recombinant Human E-cadherin Fc chimera (BioLegend) (human, UniProt P12830 155-707); experiment: phage display panning
T1 construct: also called human Ecad Fc chimeric protein; recombinant human Ecad Fc chimera; Fc part of the bought chimera not given
T1 sequence (looked up): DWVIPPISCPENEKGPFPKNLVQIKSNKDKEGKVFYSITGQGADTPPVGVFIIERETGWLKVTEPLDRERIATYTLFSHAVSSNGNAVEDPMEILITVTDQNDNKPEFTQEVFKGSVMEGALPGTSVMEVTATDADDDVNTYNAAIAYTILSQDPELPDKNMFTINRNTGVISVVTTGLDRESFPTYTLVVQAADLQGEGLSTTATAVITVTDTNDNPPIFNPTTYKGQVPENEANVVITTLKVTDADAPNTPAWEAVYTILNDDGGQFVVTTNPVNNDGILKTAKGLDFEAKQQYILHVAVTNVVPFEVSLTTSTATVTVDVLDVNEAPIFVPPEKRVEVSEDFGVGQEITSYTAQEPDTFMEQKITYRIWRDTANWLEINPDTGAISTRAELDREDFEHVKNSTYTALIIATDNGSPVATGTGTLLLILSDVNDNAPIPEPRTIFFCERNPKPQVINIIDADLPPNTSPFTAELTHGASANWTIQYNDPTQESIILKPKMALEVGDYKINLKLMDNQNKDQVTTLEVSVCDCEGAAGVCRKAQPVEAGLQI
Excerpt: (§1) hmcECAD.6 scFv sequence was generated and optimized for binding to Ecad protein through phage display library selection. A naive human scFv library of approximately 2×10⁹ diversity was used to screen against recombinant Ecad protein (Biomolecular Discovery, Rochester, NY). The hmcECAD.6 scFv clone was identified after two rounds of screening against mouse Ecad followed by another round of panning on human Ecad Fc chimeric protein (both from BioLegend, San Diego, CA). […] Final hmcECAD.6 sequence (SEQ ID NO: 90) was codon optimized for cloning of heavy and light chain into EcCAR plasmid.

[2] = molecular target: T2, mouse Ecad (recombinant protein, BioLegend) (mouse, UniProt P09803 157-709, limits assumed); experiment: phage ELISA; relative affinity estimated against the FLAG antibody signal
T2 construct: Bought recombinant protein; Also used here for the general statements of mouse cross-reactivity; also called mouse E-cadherin
T2 sequence (looked up): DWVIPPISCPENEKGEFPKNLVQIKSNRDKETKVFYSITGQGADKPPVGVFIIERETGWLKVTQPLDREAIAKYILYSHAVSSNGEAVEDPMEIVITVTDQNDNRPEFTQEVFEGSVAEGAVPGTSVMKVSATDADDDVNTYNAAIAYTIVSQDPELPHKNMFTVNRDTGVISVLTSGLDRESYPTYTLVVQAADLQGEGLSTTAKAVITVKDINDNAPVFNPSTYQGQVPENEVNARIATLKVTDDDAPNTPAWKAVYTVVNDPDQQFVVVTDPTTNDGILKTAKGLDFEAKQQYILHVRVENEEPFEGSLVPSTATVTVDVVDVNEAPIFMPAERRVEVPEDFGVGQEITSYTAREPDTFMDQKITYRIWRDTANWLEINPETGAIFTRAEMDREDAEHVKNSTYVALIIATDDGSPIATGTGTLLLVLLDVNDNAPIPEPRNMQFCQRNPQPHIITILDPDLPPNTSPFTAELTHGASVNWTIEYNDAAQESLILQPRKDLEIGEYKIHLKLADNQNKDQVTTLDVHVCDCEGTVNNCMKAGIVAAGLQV
Excerpt: as §1

B1: hmcECAD.6 scFv clone (scFv)
scFv: LPVLTQPPSASGTPGQRVTISCSGSSSNIGSNYVYWYQQLPGTAPKLLIYRNNQRPSGVPDRFSGSKSGTSASLAISGLQSEDEADYYCASWDTSLRAWVFGGGTKLTVLGEGKSSGSGSESKASEVQLVQSGGGLVQPGGSLRLSCAASGFTFSSYSMNWVRQAPGKGLEWVSYISSSSSTIYYVDSVKGRFTISRDNAKNSLYLQMDSLRAEDTAVYYCARGGRVLVGALFDYWGQGTLVTVSS
notes: Human scFv from a naive phage display library; also called anti-hmcECAD.6; anti-Ecad scFv
Does B1 bind [1]?
Result: binds

And the Kd [2]?
Its Kd is ~5 nM.
